Data from publication PMC7881136, “Mechanism of karyopherin-β2 binding and nuclear import of ALS variants FUS(P525L) and FUS(R495X)” (Scientific Reports, 2021).

Legend:
Conditions in all cases: both partners purified
[1] = biological target: T1, FUS(P525L)^PY-NLS (475–526, P525L), MBP removed (UniProt P35637 475-526, P525L); test: crystal structure; Kapβ2ΔLoop·FUS(P525L) PY-NLS complex, 2.7 Å, space group P2(1)2(1)2, molecular replacement; crystals from 1 M succinic acid pH 7.0, 1% PEG MME2000, 20 °C
T1 construct: FUS residues 475–526 with the ALS mutation P525L; residues 507–526 modeled in the crystal structure; also called FUS(475–526, P525L); FUS PY-NLS(P525L); source: E. coli, lysed together with bacteria expressing GST-Kapβ2ΔLoop; complex purified (GSH sepharose, amylose, TEV, gel filtration); not shown: MBP, N-terminal, cleaved
T1 sequence (looked up): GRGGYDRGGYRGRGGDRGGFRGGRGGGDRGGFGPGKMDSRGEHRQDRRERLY

[2] = biological target: T2, Kapβ2 (untagged, GST removed) (human, UniProt Q92973-2 1-890); test: ITC; quality control of the Kapβ2 preparations with MBP-hnRNP A1 PY-NLS; set-up not told
T2 construct: Karyopherin β2 (Kapβ2, Transportin-1, TNPO1), human; used for ITC and turbidity assays; also called Karyopherin-β2; Transportin-1; source: E. coli BL21 (DE3), purified (GSH column, Tev cleavage, anion exchange, SEC Superdex200)
T2 sequence (looked up): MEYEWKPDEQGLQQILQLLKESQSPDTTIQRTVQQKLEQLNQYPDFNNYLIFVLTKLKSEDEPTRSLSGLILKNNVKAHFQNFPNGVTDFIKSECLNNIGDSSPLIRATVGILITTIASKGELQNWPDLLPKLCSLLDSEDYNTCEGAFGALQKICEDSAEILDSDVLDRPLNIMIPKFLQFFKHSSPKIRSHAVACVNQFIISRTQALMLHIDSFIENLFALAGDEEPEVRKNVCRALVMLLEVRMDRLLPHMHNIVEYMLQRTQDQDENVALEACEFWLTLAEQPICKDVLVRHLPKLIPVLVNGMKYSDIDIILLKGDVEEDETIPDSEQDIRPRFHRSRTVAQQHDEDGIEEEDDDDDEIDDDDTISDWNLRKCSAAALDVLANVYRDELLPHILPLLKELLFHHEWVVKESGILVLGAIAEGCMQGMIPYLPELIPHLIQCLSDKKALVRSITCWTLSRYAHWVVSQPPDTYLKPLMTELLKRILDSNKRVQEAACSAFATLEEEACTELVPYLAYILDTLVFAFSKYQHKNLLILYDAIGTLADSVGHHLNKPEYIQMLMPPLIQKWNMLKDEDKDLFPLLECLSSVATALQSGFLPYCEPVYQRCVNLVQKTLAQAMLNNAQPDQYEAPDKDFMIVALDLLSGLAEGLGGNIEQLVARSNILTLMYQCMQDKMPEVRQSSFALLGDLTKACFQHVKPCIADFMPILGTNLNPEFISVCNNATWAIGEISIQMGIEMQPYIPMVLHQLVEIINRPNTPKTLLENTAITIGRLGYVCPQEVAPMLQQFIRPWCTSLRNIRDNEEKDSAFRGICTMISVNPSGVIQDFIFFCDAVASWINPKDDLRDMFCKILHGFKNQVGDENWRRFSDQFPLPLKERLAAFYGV

[3] = biological target: T2, Kapβ2 (untagged, GST removed); test: ITC; reversed set-up: 10 μM MBP-FUS protein in the cell, 100 μM or 200 μM Kapβ2 in the syringe; 20 mM Tris–HCl, 150 mM NaCl, 10% glycerol, 2 mM BME; 20 °C; single class of binding sites; 'apparent' KD for FUS(1–370)

B1: Kapβ2ΔLoop (residues 337–367 replaced with a GGSGGSG linker) (natural protein, human)
chain: MEYEWKPDEQGLQQILQLLKESQSPDTTIQRTVQQKLEQLNQYPDFNNYLIFVLTKLKSEDEPTRSLSGLILKNNVKAHFQNFPNGVTDFIKSECLNNIGDSSPLIRATVGILITTIASKGELQNWPDLLPKLCSLLDSEDYNTCEGAFGALQKICEDSAEILDSDVLDRPLNIMIPKFLQFFKHSSPKIRSHAVACVNQFIISRTQALMLHIDSFIENLFALAGDEEPEVRKNVCRALVMLLEVRMDRLLPHMHNIVEYMLQRTQDQDENVALEACEFWLTLAEQPICKDVLVRHLPKLIPVLVNGMKYSDIDIILLKGDVEEDETIPDSEQDIRGGSGGSGDTISDWNLRKCSAAALDVLANVYRDELLPHILPLLKELLFHHEWVVKESGILVLGAIAEGCMQGMIPYLPELIPHLIQCLSDKKALVRSITCWTLSRYAHWVVSQPPDTYLKPLMTELLKRILDSNKRVQEAACSAFATLEEEACTELVPYLAYILDTLVFAFSKYQHKNLLILYDAIGTLADSVGHHLNKPEYIQMLMPPLIQKWNMLKDEDKDLFPLLECLSSVATALQSGFLPYCEPVYQRCVNLVQKTLAQAMLNNAQPDQYEAPDKDFMIVALDLLSGLAEGLGGNIEQLVARSNILTLMYQCMQDKMPEVRQSSFALLGDLTKACFQHVKPCIADFMPILGTNLNPEFISVCNNATWAIGEISIQMGIEMQPYIPMVLHQLVEIINRPNTPKTLLENTAITIGRLGYVCPQEVAPMLQQFIRPWCTSLRNIRDNEEKDSAFRGICTMISVNPSGVIQDFIFFCDAVASWINPKDDLRDMFCKILHGFKNQVGDENWRRFSDQFPLPLKERLAAFYGV
notes: linker that replaces residues 337–367; crystallisation construct; also called GST-Kapβ2ΔLoop; source: E. coli, lysed together with bacteria expressing MBP-FUS(475–526, P525L); complex purified (GSH sepharose, amylose, TEV, gel filtration)
Does B1 bind [1]?
Result: binds

B2: MBP-hnRNP A1 PY-NLS (domain or fragment)
chain: GGSYNDFGNYNNQSSNFGPMKGGNFGGRSSGPYGGGGQYFAKPRNQGGY
modifications: Limits not printed: conventional hnRNP A1 PY-NLS (M9) construct 257-305 in the 320-aa A1-A isoform, shifted by +52 to the 372-aa canonical entry. MBP omitted.
How did the Kd [2] turn out when B2 was run?
The Kd was roughly 50 nM.

B3: MBP-FUS(R495X) (residues 1–494) (domain or fragment, UniProt P35637 1-494, looked up)
chain: MASNDYTQQATQSYGAYPTQPGQGYSQQSSQPYGQQSYSGYSQSTDTSGYGQSSYSSYGQSQNTGYGTQSTPQGYGSTGGYGSSQSSQSSYGQQSSYPGYGQQPAPSSTSGSYGSSSQSSSYGQPQSGSYSQQPSYGGQQQSYGQQQSYNPPQGYGQQNQYNSSSGGGGGGGGGGNYGQDQSSMSSGGGSGGGYGNQDQSGGGGSGGYGQQDRGGRGRGGSGGGGGGGGGGYNRSSGGYEPRGRGGGRGGRGGMGGSDRGGFNKFGGPRDQGSRHDSEQDNSDNNTIFVQGLGENVTIESVADYFKQIGIIKTNKKTGQPMINLYTDRETGKLKGEATVSFDDPPSAKAAIDWFDGKEFSGNPIKVSFATRRADFNRGGGNGRGGRGRGGPMGRGGYGGGGSGGGGRGGFPSGGGGGGGQQRAGDWKCPNPTCENMNFSWRNECNQCKAPKPDGPGGGPGGSHMGGNYGDDRRGGRGGYDRGGYRGRGGDRGGF
notes: source: E. coli BL21 (DE3), purified (amylose resin, SEC); not shown: MBP, N-terminal, kept
B3 was tested. Which Kd [3] did it give?
The Kd was 330 nM.
